Our source for the activity values is patent US20250092426, “CAS ENDONUCLEASES AND RELATED METHODS” (Flagship Pioneering Innovations VII, LLC, published 2025).

The target in the data set is T1, CasEnd-26 (synthetic construct).
T1 chain: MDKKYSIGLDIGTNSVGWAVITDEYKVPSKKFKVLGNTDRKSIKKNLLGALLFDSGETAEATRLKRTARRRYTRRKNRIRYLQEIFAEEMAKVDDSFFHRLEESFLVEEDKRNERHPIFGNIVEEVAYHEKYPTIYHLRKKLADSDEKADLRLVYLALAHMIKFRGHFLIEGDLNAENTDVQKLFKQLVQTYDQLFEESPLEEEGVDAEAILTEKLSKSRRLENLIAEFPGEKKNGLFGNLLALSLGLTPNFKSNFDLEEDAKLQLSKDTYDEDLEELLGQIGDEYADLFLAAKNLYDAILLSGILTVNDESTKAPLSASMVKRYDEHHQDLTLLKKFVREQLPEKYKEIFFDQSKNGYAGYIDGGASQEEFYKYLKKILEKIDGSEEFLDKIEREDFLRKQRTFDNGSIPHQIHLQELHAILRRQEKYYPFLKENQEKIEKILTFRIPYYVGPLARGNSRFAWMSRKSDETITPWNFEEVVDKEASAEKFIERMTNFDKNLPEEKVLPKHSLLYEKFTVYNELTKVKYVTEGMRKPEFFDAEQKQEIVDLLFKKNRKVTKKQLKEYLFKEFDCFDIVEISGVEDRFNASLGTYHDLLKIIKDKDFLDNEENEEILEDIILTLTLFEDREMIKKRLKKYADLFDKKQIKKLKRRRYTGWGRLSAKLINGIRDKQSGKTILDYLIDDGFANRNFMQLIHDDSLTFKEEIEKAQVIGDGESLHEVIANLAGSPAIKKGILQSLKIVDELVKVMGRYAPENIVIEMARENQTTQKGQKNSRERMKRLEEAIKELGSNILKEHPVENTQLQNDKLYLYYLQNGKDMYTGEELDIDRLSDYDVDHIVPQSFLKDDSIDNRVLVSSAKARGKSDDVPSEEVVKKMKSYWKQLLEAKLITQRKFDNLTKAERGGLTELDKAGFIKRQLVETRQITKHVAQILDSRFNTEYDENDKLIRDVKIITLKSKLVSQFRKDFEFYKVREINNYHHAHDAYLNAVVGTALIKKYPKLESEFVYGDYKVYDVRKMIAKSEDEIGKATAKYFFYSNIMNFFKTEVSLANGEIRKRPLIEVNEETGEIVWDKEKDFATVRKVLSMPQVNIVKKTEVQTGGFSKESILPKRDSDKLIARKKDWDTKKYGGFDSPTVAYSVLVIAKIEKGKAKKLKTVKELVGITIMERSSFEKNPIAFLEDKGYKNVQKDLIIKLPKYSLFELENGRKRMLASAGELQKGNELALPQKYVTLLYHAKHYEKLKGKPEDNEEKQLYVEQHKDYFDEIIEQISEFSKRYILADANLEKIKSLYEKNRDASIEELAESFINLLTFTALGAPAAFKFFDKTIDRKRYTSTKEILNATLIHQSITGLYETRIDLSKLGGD
The data set can be described thus: cell_activity; +++; HEK293T; PAM not stated. Put shortly: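 BFP-to-GFP conversion via reverse transcriptase fusion with each Cas endonuclease plus template RNA: 200 ng of each plasmid nucleofected into 250,000 BFP-expressing HEK293T cells (program DS-150). Percent GFP+ cells by flow cytometry at day 4 measured editing.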

B1: BFP-to-GFP template RNA ; BFP reporter protospacer (ssRNA ; dsDNA)
RNA: GCCGAAGCACUGCACGCCGUGUUUUAGAGCUAGAAAUAGCAAGUUAAAAUAAGGCUAGUCCGUUAUCAACUUGAAAAAGUGGCACCGAGUCGGUGCACCCUGACGUACGGCGUGCAGUGCUU
DNA 1: GCCGAAGCACTGCACGCCGT
DNA 2: ACGGCGTGCAGTGCTTCGGC
For the molecule B1, the activity was ≥ 100 % of reference.
